The target of assay [1] is T1, recombinant human Tau monomer, 2N4R isoform (amino acids 2-441) (human, UniProt P10636-8 2-441).
T1 construct: range 2-441; N-terminal His-tag removed with TEV protease; also called monomeric Tau
In words: SPR, captured IgG, Tau monomer analyte, 1:1 model; fit-quality column: Yes. The method, then:
(§1) Briefly, IgGs in 1 mL culuture were captured using tip columns that were custom packed with 20 μL MabSelect SuRe resin (Glygen Corp & GE Healthcare). After washing with 1×PBS pH 7.4, IgGs were eluted into 160 μL of 50 mM phosphoric acid pH 3 and neutralized with 12 μL of 20×PBS pH 11. MabSelect SuRe tip columns were stripped in 0.1 M NaOH and regenerated with 1×PBS pH 7.4 for consecutive use of up to 15 times. Purified antibodies in 96-well format were normalized to 0.1 mg/ml using a Hamilton Star liquid handling robot. The “pre-stress” samples were kept at approximately 4° C. and the “post-stress” samples were incubated at 40° C. for two weeks in a PCR machine. Functional stability of the variants was compared by running surface plasmon resonance kinetics experiments with the “pre-stress” and “post-stress” antibody preps. The antibodies were assessed using a human antibody capture CM5 Series S chip generated using the GE Biacore human IgG capture kit and a Biacore T200 instrument. Antibodies diluted to 2 μg/ml were immobilized using a 15 second injection time and 10 μl/min flow rate. Binding to Tau monomer at 0 nM, 26.5 nM and 265 nM, at 25° C., using a flow rate of 40 μl/min, was monitored for a 180 second association phase followed by a 300 second dissociation phase. Samples were run in 10 mM HEPES pH7.4, 150 mM NaCl, 0.05% Tween 20 (HBSP) using a multi-cycle kinetics format. Data was analyzed using BIAevaluation software, fitting a 1:1 binding model. The resulting affinity (KD) values are shown in FIG. 8A-D. A Stability Index was also calculated, using the rationale that affinity-compromised antibodies (due for example to deamidation of key residues) are expected to contribute equally to the IgG capture level (“Ligand Level”) but to contribute less to the measured Tau binding, and that this would be reflected in the experimentally derived value for Rmax. To account for variations in the amount of each antibody captured, Rmax was normalized for the antibody capture level (as measured by “Ligand Level”, Response Units immobilized during antibody capture). Thus Normalized Rmax is calculated as the experimental Rmax (units=RU) divided by the “Ligand Level” (Evaluation output representing the RU captured during the hIgG capture step, units=RU), and Stability Index is calculated here as Normalized Rmax (post-stress) divided by Normalized Rmax (pre-stress).
(In SPR one partner is held on a chip, and binding of the other changes the refractive index at the surface.)

Assay [2] deals with T1, recombinant human Tau monomer, 2N4R …. In words: SPR; Normalized Rmax post-stress (2 weeks 40 C) / pre-stress. The method, then:
as §1

Changes are numbered by the printed parent chain.

T1 sequence (P10636 other isoform, or with tags, fused parts or gaps limits assumed): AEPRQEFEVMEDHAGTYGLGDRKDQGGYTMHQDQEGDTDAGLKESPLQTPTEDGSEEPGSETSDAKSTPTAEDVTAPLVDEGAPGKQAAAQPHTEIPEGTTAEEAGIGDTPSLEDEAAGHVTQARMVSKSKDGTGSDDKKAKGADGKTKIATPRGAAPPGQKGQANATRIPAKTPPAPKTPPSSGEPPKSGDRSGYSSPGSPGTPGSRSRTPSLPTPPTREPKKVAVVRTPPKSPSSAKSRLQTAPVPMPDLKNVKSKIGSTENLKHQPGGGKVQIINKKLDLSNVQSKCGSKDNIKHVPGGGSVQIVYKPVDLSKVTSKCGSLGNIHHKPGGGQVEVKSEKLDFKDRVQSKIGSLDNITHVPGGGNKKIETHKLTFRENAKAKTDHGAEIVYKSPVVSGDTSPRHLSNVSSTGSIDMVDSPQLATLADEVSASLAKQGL

B1: hu37D3.v28.B1 (antibody, V domains shown)
VH: EVQLVESGGGLVQPGGSLRLSCAASGLIFRSYGMSWVRQAPGKGLEWVATINSGGTYTYYPDSVKGRFTISRDNSKNTLYLQMNSLRAEDTAVYYCANSYSGAMDYWGQGTLVTVSS
VL: DDVLTQTPLSLPVTPGQPASISCRSSQSIVHSIGNTFFEWYLQKPGQSPQLLIYKVSNRFSGVPDRFSGSGSGTDFTLKISRVEAEDVGVYYCFQGSLVPWTFGQGTKVEIK
Usually Kd stands for the equilibrium constant for the complex coming apart. Regarding B1, in assay [1], the Kd was determined as 24.3 nM. The “Stability Index” value in assay [2] was determined as 101%.

B2: hu37D3.v28.A10 (antibody, V domains shown)
VH: B1 VH
VL: B1 VL with L4M, I33N, F37Y, L98H
As for B2, the Kd in assay [1] turned out to be 41.8 nM. Further, the “Stability Index” value in assay [2] turned out to be 37%.

B3: hu37D3-H9.v30.5 (antibody, V domains shown)
VH: B1 VH
VL: B1 VL with F37Y
For B3, the Kd in assay [1] stood at 29.1 nM. Moreover, in assay [2], the “Stability Index” value amounted to 80%.

B4: hu37D3.v28.A8 (antibody, V domains shown)
VH: B1 VH
VL: B1 VL with L4M, I33N, F37Y
With B4, in assay [1], the Kd amounted to 1.8 nM. The “Stability Index” value in assay [2] amounted to 57%.

B5: hu37D3.v28.A16 (antibody, V domains shown)
VH: B1 VH
VL: B1 VL with D2V, I33N, F37Y
Consider B5, for which the Kd in assay [1] came out at 3.9 nM. Also, the “Stability Index” value in assay [2] worked out at 89%.

B6: hu37D3.v28.A18 (antibody, V domains shown)
VH: B1 VH
VL: B1 VL with D2V, I33N, F37Y, L98H
Regarding B6, in assay [1], the dissociation constant Kd stood at 17.3 nM. Moreover, the “Stability Index” value in assay [2] was determined as 83%.

B7: hu37D3.v28.A14 (antibody, V domains shown)
VH: B1 VH
VL: B1 VL with L4M, I33N, F37Y, F38L, L98H
With B7, in assay [1], the Kd stood at 51.4 nM. The “Stability Index” value in assay [2] came to 70%.

B8: hu37D3.v29.4 (antibody, V domains shown)
VH: B1 VH
VL: B1 VL with D1E, I33N, N35A, F37Y
In the case of B8, in assay [1], the Kd was 4.9 nM. For the same molecule, in assay [2], the “Stability Index” value was 76%.

B9: hu37D3.v28.F2 (antibody, V domains shown)
VH: B1 VH
VL: B1 VL with S32T, I33N, F37Y
As to B9, the Kd in assay [1] was determined as 1.9 nM. Further, the “Stability Index” value in assay [2] was 51%.

B10: hu37D3.v29.1 (antibody, V domains shown)
VH: B1 VH
VL: B1 VL with D1E, I33N, N35D, F37Y
As for B10, the Kd in assay [1] worked out at 13.5 nM. In assay [2], the “Stability Index” value came to 70%.

B11: hu37D3.v29.5 (antibody, V domains shown)
VH: B1 VH
VL: B1 VL with D1E, I33N, N35H, F37Y
Consider B11, for which the Kd in assay [1] came out at 1.4 nM. For the same molecule, the “Stability Index” value in assay [2] was found to be 64%.

B12: hu37D3.v29.13 (antibody, V domains shown)
VH: B1 VH
VL: B1 VL with D1E, I33N, G34A, N35K, F37Y
Take B12: the Kd in assay [1] stood at 6.7 nM. In addition, the “Stability Index” value in assay [2] was 79%.

B13: hu37D3.v29.6 (antibody, V domains shown)
VH: B1 VH
VL: B1 VL with D1E, I33N, N35K, F37Y
Consider B13, for which the dissociation constant (Kd) in assay [1] was 1.4 nM. For the same molecule, the “Stability Index” value in assay [2] worked out at 62%.

B14: hu37D3.v28.F3 (antibody, V domains shown)
VH: B1 VH
VL: B1 VL with S32T, I33N, G34A, F37Y
Consider B14, for which the Kd in assay [1] was determined as 9.5 nM. The “Stability Index” value in assay [2] came to 70%.

B15: hu37D3.v28.E1 (antibody, V domains shown)
VH: B1 VH
VL: B1 VL with H31N, I33N, F37Y
Turning to B15, the Kd in assay [1] stood at 20.1 nM. For the same molecule, in assay [2], the “Stability Index” value is 46%.

B16: hu37D3.v28.B6 (antibody, V domains shown)
VH: B1 VH
VL: B1 VL with I33D, F37R
In the case of B16, the Kd in assay [1] worked out at 85.6 nM. Further, in assay [2], the “Stability Index” value was 46%.

B17: hu37D3-H9.v30.11 (antibody, V domains shown)
VH: B1 VH
VL: B1 VL with I33R, F37Y
Consider B17, for which the Kd in assay [1] was determined as 20.9 nM. Also, the “Stability Index” value in assay [2] turned out to be 86%.

B18: hu37D3.v28.C1 (antibody, V domains shown)
VH: B1 VH
VL: B1 VL with I33N, G34N, F37Y
Regarding B18, the Kd in assay [1] stood at 1.4 nM. The “Stability Index” value in assay [2] is 77%.

B19: hu37D3.v28.E2 (antibody, V domains shown)
VH: B1 VH
VL: B1 VL with H31Q, I33N, F37Y
As to B19, the Kd in assay [1] worked out at 22.5 nM. Also, in assay [2], the “Stability Index” value came to 28%.

B20: hu37D3-H9.v5.1 (antibody, V domains shown)
VH: B1 VH
VL: B1 VL with D1E, I33N, G34A, F37Y
For B20, the equilibrium dissociation constant (Kd) in assay [1] stood at 4 nM. Further, in assay [2], the “Stability Index” value is 72%.

B21: hu37D3.v28.D1 (antibody, V domains shown)
VH: B1 VH
VL: B1 VL with S32A, I33N, F37Y
B21: the Kd in assay [1] was 5.7 nM. Also, the “Stability Index” value in assay [2] came to 73%.

B22: hu37D3.v29.9 (antibody, V domains shown)
VH: B1 VH
VL: B1 VL with D1E, I33N, G34A, N35Q, F37Y
As to B22, the Kd in assay [1] came to 7.3 nM. In addition, the “Stability Index” value in assay [2] was 86%.

B23: hu37D3.v29.14 (antibody, V domains shown)
VH: B1 VH
VL: B1 VL with D1E, I33N, G34A, N35L, F37Y
For the molecule B23, in assay [1], the Kd worked out at 22 nM. Further, the “Stability Index” value in assay [2] came to 92%.

B24: hu37D3.v29.10 (antibody, V domains shown)
VH: B1 VH
VL: B1 VL with D1E, I33N, G34A, N35E, F37Y
Consider B24, for which the Kd in assay [1] came to 17.4 nM. Also, in assay [2], the “Stability Index” value was determined as 100%.

B25: hu37D3.v29.3 (antibody, V domains shown)
VH: B1 VH
VL: B1 VL with D1E, I33N, N35E, F37Y
B25: the Kd in assay [1] was determined as 5.6 nM. The “Stability Index” value in assay [2] stood at 93%.

B26: hu37D3-H9.v30.10 (antibody, V domains shown)
VH: B1 VH
VL: B1 VL with I33K, F37Y
Take B26: the Kd in assay [1] worked out at 16.1 nM. For the same molecule, in assay [2], the “Stability Index” value amounted to 84%.

B27: hu37D3.v28.C2 (antibody, V domains shown)
VH: B1 VH
VL: B1 VL with I33N, G34D, F37Y
Consider B27, for which the equilibrium dissociation constant (Kd) in assay [1] was 9.6 nM. Besides, the “Stability Index” value in assay [2] stood at 75%.

B28: hu37D3.v28.B2 (antibody, V domains shown)
VH: B1 VH
VL: B1 VL with I33M
In the case of B28, the Kd in assay [1] is 31.8 nM. Besides, the “Stability Index” value in assay [2] was determined as 83%.

B29: hu37D3.v29.7 (antibody, V domains shown)
VH: B1 VH
VL: B1 VL with D1E, I33N, N35L, F37Y
For B29, the dissociation constant (Kd) in assay [1] worked out at 4.6 nM. Besides, the “Stability Index” value in assay [2] was found to be 90%.

B30: hu37D3.v29.11 (antibody, V domains shown)
VH: B1 VH
VL: B1 VL with D1E, I33N, G34A, N35A, F37Y
B30: in assay [1], the Kd turned out to be 27.9 nM. The “Stability Index” value in assay [2] was found to be 67%.

B31: hu37D3.v29.12 (antibody, V domains shown)
VH: B1 VH
VL: B1 VL with D1E, I33N, G34A, N35H, F37Y
On to B31, for which the Kd in assay [1] worked out at 7 nM. The “Stability Index” value in assay [2] came out at 50%.

For the origin of these results see patent publication US20190367592A1 (AC IMMUNE, published 2019).
